{
  "source": "patent US11912777",
  "about": "(NANJING LEADS BIOLABS, dated 2024)",
  "key": {"[1]": {"target": "T1, human TNFR2, mouse Fc-tag (human)", "T1 construct": "also called hTNFR2-mFc; huTNFR2-mFc", "T1 chain": "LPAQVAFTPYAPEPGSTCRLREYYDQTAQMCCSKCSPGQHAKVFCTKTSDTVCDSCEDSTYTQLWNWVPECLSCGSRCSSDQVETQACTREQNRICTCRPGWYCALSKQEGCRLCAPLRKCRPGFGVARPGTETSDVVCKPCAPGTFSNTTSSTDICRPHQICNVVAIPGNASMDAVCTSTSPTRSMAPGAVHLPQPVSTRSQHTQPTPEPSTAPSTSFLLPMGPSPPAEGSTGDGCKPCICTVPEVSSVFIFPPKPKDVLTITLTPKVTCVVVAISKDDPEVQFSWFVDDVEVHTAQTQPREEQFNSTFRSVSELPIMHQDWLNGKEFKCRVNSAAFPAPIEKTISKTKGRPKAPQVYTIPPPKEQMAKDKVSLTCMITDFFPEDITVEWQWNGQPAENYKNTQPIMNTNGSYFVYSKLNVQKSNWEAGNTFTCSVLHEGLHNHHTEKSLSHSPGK", "test": "ELISA on coated human TNFR2-mFc, left panel; fit value of a flat control curve; unit from the axis [b]"}, "[2]": {"target": "T1, human TNFR2, mouse Fc-tag", "test": "blocking ELISA: hTNFR2-mFc mixed with antibody, binding to coated TNF-alpha his tag; right panel; fit value of a flat control curve; unit from the axis [a]"}, "[3]": {"target": "T2, human TNFR2 expressed on activated PBMCs (human, UniProt P20333 23-461)", "T2 construct": "whole, on cells; Native receptor on primary cells", "T2 sequence (looked up)": "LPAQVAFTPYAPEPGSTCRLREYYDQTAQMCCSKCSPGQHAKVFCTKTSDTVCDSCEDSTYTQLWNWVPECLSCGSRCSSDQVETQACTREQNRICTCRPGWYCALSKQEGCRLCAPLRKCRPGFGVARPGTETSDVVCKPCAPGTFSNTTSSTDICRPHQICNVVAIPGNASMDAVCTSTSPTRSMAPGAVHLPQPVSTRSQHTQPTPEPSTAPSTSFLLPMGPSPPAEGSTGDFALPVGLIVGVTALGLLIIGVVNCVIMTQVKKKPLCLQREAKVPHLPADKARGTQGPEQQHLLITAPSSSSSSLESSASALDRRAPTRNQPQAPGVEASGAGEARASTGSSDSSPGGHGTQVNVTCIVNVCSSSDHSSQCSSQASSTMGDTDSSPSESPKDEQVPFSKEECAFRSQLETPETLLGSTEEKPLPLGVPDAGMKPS", "test": "flow cytometry on activated human PBMCs"}, "[4]": {"target": "T3, Cynomolgus TNFR2, human Fc tag protein (cynomolgus)", "T3 construct": "also called cyno-TNFR2-huFc", "test": "ELISA on coated cyno-TNFR2-huFc; bottom panel"}, "[5]": {"target": "T1, human TNFR2, mouse Fc-tag", "test": "ELISA on coated human TNFR2-mFc, left panel; fit value of a flat control curve; unit from the axis [a]"}, "[6]": {"target": "T4, Human TNFR2, human Fc tag protein (human)", "T4 construct": "also called huTNFR2-huFc; HuTNFR2-huFc", "test": "ELISA on coated huTNFR2-huFc, middle panel (with 43B7A4); fit value of a flat control curve; unit from the axis"}, "[7]": {"target": "T4, Human TNFR2, human Fc tag protein", "test": "ELISA on coated huTNFR2-huFc, top panel (with 32A1D5); fit value of a flat control curve; unit from the axis"}},
  "data": [
    {"binder": "negative control IgG (antibody, V domains shown, also called IgG Control; IgG (Negative Control)) VH: QVQLVESGGGAVQPGRSLRLSCAASGFTFSSYGMHWVRQAPGKGLEWVAVILYDGSDKFYADSVKGRFTISRDNSKNTLYLQMNSLRAEDTAVYYCAKVAVAGTHFDYWGQGTLVTVSS VL: DIQMTQSPSSLSASVGDRVTITCRASQGIRNDLGWYQQKPGKAPKLLIYAASSLQSGVPSRFSGSGSGTDFTLTISSLQPEDFATYYCQQLNSYPPTFGGGTKVEIKR", "values": [
      {"measurement": "EC50", "setting": "[1]", "result": "~3.06", "unit": "nM"},
      {"measurement": "IC50", "setting": "[2]", "result": "~2.06", "unit": "nM"},
      {"measurement": "binding result", "setting": "[3]", "result": "no binding"},
      {"measurement": "binding result", "setting": "[4]", "result": "no binding (tested: about 1 nM)"},
      {"measurement": "EC50", "setting": "[5]", "result": "~0.102", "unit": "nM"},
      {"measurement": "EC50", "setting": "[6]", "result": 277, "unit": "nM"},
      {"measurement": "EC50", "setting": "[7]", "result": "~0.102", "unit": "nM"}
    ]}
  ]
}
